According to patent US5728561:

How the values were obtained:
[1] = molecular target: E1-beta of plasmid pCD705, with the C-terminal part of the E1-beta open reading frame in the wrong orientation (Streptomyces avermitilis)
[2] = molecular target: E1-beta subunit of S. avermitilis BCKDH (Streptomyces avermitilis)

## E1-alpha subunit of S. avermitilis BCKDH (enzyme)
[1]
  E1 BCKDH specific activity: 0.5 pmol/min/mg
[2]
  E1 BCKDH specific activity: 13.7 pmol/min/mg
